Reference: US20120093814A1, “Fusion Proteins Comprising Canine FC Portions” (BOEHRINGER INGELHEIM INTERNATIONAL GMBH, priority 2009, published 2012)
Positions of bridges follow the written chain, without caps; N, C: chain ends. No end group written: not given here.

How the values were obtained:
[1] = target: canine NPRA (natriuretic peptide receptor A), full length, stably expressed on HEK293 cells (canine (dog)); experiment: cell-based or functional assay
[2] = test system: conscious telemeterized beagles; experiment: Hemodynamic assessment in telemeterized conscious dogs (Study #1 and Study #2); format: in vivo, dog; details: for effect on HR (figure legend) / effect on mean arterial blood pressure (figure legend): Days 1-4 post-dose
Method: The criteria for dose selection was that the dose could not decrease mean arterial blood pressure more than 5-10 mmHg below baseline, and that it should increase plasma cGMP concentration approximately 1.5×-2× above baseline. […] In study #1, a total of 5 dogs were dosed subcutaneously with vehicle, or ANP-caFc at 0.5, 1 and 2.5 mg/kg based on a modified Latin square design over a 4-week period. This dose-range was chosen because it was expected to overlap the targeted plasma cGMP elevation based on the single dose dog PK study. The dosing interval was 7 days. One animal was excluded from the final data analysis due to a failure of telemetry device during the study. ANP-caFc produced a dose-dependent increase in peak plasma levels of cGMP (3.7-, 3.5- and 6.6-fold—of vehicle day value FIG. 6), a dose-dependent peak reduction in mean arterial blood pressure (MAP; −13±5, −19±4, and −20±5 mmHg vs. vehicle—FIGS. 7A and 7B), and peak heart rate was increased (+30 ±10, +29 ±9, and +25 ±9 beats per minute—FIGS. 8A and 8B).
Since the MAP decreased more than 10 mmHg during the peak effect for all three doses, Study #2 was performed with lower doses (0.05 and 0.25 mg/kg) in the same 4 dogs using a similar study design. […] The 0.05 mg/kg dose of ANP-caFc had no effect of MAP (1.9±1.4 mmHg), HR (1.8±0.6 beats per minute), or plasma cGMP. (Urine samples were also collected for cGMP excretion measurements, however, samples were contaminated by drinking water and could not be used.)

[3] = Pharmacokinetics of ANP-caFc in conscious dogs following a single dose; format: in vivo, dog
Method: (§1) Dogs were administered a single IV dose (1 mg/kg or 17 nmol/kg) or SC dose (2.5 mg/kg or 42 nmol/kg) of ANP-caFc to assess PKPD over a period of 4 to 7 days. These doses were selected because they were similar to the dose-range employed to evaluate Cardeva (recombinant human serum albumin-BNP fusion protein) in dogs. […] The sensitivity of the ELISA used to reliably detect ANP-caFc in dog plasma was limited by having a minimum detection level in dog plasma of […]. In order to avoid plasma matrix effects, a minimum dilution of 1:50 was required when assaying beagle plasma. The linear range of the assay, in PBS, is […] to approximately 100 nM. In 2% beagle plasma the linear range of the curve is 1 nM to about 80 or 90 nM. FIG. 4 only provides an estimate of the estimated plasma levels and Table 2 presents the pharmacokinetics of ANP-caFc.

plasma cGMP = experiment: Plasma cGMP levels in conscious dogs after IV and SC administration (preliminary PKPD); format: in vivo, dog; details: single SC dose 2.5 mg/kg
Method: as §1
Plasma cGMP following SC dosing appeared to be elevated above baseline ≧48 hours post-dose (FIG. 5).

[4] = target: T1, canine NPRA (natriuretic peptide receptor A), full length, stably expressed on HEK293 cells (canine (dog), UniProt A0A8I3MHU3 32-1060); experiment: cell-based or functional assay
T1 sequence: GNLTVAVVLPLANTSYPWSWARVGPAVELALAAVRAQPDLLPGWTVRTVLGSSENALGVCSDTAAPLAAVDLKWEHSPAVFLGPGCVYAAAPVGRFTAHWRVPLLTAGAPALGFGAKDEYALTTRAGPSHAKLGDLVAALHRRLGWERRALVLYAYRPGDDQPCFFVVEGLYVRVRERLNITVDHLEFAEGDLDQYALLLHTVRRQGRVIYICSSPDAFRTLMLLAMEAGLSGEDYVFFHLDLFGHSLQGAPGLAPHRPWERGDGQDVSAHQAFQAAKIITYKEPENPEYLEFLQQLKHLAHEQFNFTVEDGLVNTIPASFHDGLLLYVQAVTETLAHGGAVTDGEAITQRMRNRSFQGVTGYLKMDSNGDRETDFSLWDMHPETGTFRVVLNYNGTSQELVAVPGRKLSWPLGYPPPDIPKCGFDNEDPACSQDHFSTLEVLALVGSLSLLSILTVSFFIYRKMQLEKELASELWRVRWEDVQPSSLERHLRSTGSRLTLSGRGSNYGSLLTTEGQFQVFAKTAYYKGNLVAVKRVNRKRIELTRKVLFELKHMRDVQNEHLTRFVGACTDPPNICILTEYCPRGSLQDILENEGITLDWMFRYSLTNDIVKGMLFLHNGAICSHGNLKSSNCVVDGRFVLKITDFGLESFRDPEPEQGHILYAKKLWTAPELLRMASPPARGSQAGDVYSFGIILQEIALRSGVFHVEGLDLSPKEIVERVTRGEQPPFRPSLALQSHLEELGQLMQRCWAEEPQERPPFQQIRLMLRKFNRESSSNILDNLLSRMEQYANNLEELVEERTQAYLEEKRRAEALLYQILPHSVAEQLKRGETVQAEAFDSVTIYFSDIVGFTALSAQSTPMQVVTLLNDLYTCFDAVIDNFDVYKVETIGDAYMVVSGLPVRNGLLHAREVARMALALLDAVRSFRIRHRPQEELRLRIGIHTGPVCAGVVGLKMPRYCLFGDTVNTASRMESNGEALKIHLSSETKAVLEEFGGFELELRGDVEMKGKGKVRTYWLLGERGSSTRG

[5] = target: T1, canine NPRA (natriuretic peptide …); experiment: cell-based or functional assay; remark: listed apart in the source
[6] = single IV dose 1 mg/kg (17 nmol/kg)
[7] = single SC dose 2.5 mg/kg (42 nmol/kg)

B1: ANP28-20aa-CalgGB-Fc (recombinant canine ANP28 - (GGS)6GG linker - canine IgG-B Fc fusion protein) (Fc fusion)
chain: SLRRSSCFGGRMDRIGAQSGLGCNSFRYGGSGGSGGSGGSGGSGGSGGCPKCPAPEMLGGPSVFIFPPKPKDTLLIARTPEVTCVVVDLDPEDPEVQISWFVDGKQMQTAKTQPREEQFNGTYRVVSVLPIGHQDWLKGKQFTCKVNNKALPSPIERTISKARGQAHQPSVYVLPPSREELSKNTVSLTCLIKDFFPPDIDVEWQSNGQQEPESKYRTTPPQLDEDGSYFLYSKLSVDKSRWQRGDTFICAVMHEALHNHYTQESLSHSPGK
modifications: C-terminal Lysine residue missing in all lots produced (mass spectrometry); Fc glycosylated (G0, G1, G2)
cGMP EC50 (nM), Dog NPRA; lot 8760-110.3 [1]: 3 nM | cGMP EC50 (nM), Dog NPRA; lot 8760-137 [1]: 2.5 nM | cGMP EC50 (nM), Dog NPRA; lot 8760-174 [1]: 5.4 nM | cGMP EC50 (nM), Dog NPRA; lot 9081-51 [1]: 8.3 nM | cGMP EC50 (nM), Dog NPRA; lot 9081-53 [1]: 9.4 nM

B2: ANP-caFc: canine ANP-Fc fusion protein dosed to dogs; Fc isotype not stated, nmol/kg doses fit the IgG-B fusion (protein)
chain: B1 chain
increase in peak plasma levels of cGMP, of vehicle day value ([2]; Study #1, SC 0.5 mg/kg): 3.7 fold | peak heart rate increase ([2]; Study #1, SC 0.5 mg/kg): +30 ±10 beats per minute | peak reduction in mean arterial blood pressure (MAP) vs. vehicle ([2]; Study #1, SC 0.5 mg/kg): −13±5 mmHg | increase in peak plasma levels of cGMP, of vehicle day value ([2]; Study #1, SC 1 mg/kg): 3.5 fold | peak heart rate increase ([2]; Study #1, SC 1 mg/kg): +29 ±9 beats per minute | peak reduction in mean arterial blood pressure (MAP) vs. vehicle ([2]; Study #1, SC 1 mg/kg): −19±4 mmHg | increase in peak plasma levels of cGMP, of vehicle day value ([2]; Study #1, SC 2.5 mg/kg): 6.6 fold | peak heart rate increase ([2]; Study #1, SC 2.5 mg/kg): +25 ±9 beats per minute | peak reduction in mean arterial blood pressure (MAP) vs. vehicle ([2]; Study #1, SC 2.5 mg/kg): −20±5 mmHg | effect on HR (figure legend) ([2]; Study #1, subcutaneous): dose-dependently increased | effect on mean arterial blood pressure (figure legend) ([2]; Study #1, subcutaneous): dose-dependently decreased | change in HR ([2]; Study #2, SC 0.05 mg/kg): 1.8±0.6 beats per minute | change in MAP ([2]; Study #2, SC 0.05 mg/kg): 1.9±1.4 mmHg | effect on plasma cGMP ([2]; Study #2, SC 0.05 mg/kg): no effect | change in MAP vs. vehicle ([2]; Study #2, SC 0.25 mg/kg): −6.6±1.6 mmHg | effect on plasma cGMP ([2]; Study #2, SC 0.25 mg/kg): moderate increase | increase in heart rate ([2]; Study #2, SC 0.25 mg/kg): 20±9 beats per minute | effect on HR (figure legend) ([2]; Study #2, subcutaneous): dose-dependently increased | effect on mean arterial blood pressure (figure legend) ([2]; Study #2, subcutaneous): dose-dependently decreased | AUC [3, 6]: 2.0 ± 0.46 µM·h | MRT [3, 6]: 12.2 ± 1.9 h | T½ [3, 6]: 8.3 ± 2.0 h | Vss [3, 6]: 0.107 ± 0.013 L/kg | AUC [3, 7]: 6.1 ± 0.3 µM·h | MRT [3, 7]: 41.6 ± 1.0 h | T½ [3, 7]: 15.4 ± 1.8 h | time plasma cGMP elevated above baseline post-dose (plasma cGMP): ≥ 48 h

SLRRSSCFGGRMDRIGAQSGLGCNSFRY (disulfide 7-23 (inferred)) [canine ANP28]
cGMP EC50 (nM), cGMP induction on canine NPRA cells [4]: 0.2 nM | EC50 in the canine NPRA cGMP assay [5]: ~1 nM
